pKd: −log10 of the molar value.
Key:
[1] = biological target: recombinant CD81 large extracellular loop (CD81-LEL); assay: peptide or protein array; direct analysis on a 3-D biochip: CD81-LEL covalently immobilised in spots (300 pg/spot) on macroporous P(GMA-co-DEGDMA), blocked with BSA; E2-GFP or VMPs in solution, 0.01 M PBS pH 7.4 (VMPs also in spiked human blood plasma), 2 h, 37 °C; GFP fluorescence read; apparent dissociation constants from adsorption isotherms linearised in double reciprocal coordinates
[2] = biological target: recombinant CD81 large extracellular loop (CD81-LEL); assay: peptide or protein array; sandwich analysis on a 3-D biochip: CD81-LEL immobilised (300 pg/spot); E2-GFP or VMPs at 1500 ng/mL, 2 h, 37 °C; then Cy3-labelled polyclonal anti-E2 antibodies (1000 ng/mL, 3 h) for detection; 0.01 M PBS pH 7.4 or spiked human blood plasma

| Substance | pKd [1] | decrease in relative signal intensity against free E2 [1] [%] | decrease in relative signal intensity against free E2 [2] [%] |
| --- | --- | --- | --- |
| chimeric protein E2-superfolder GFP (HCV E2 core, 412-645 aa) (domain or fragment) | 7.94 |  |  |
| hepatitis C virus-mimetic particles (HC VMPs): PLA-b-PEG nanoparticles bearing E2-GFP on their surface | 7.58 | 40 | 45 to 48 |

From PMC7249126
